Consider 1 substance from PMC8961594.

The target of experiment [1] is Histone 2B (H2B) on the surface of HUVECs (human (endogenous in HUVEC)) (UniProt P62807).
The target is the same in experiment [2]. This is another data set of the same source.

Human Glu-plasminogen (ligand) had a Plg-mediated migration of HUVECs in Boyden chambers: decrease by anti-H2B against Plg-treated cells with control mouse IgG (Figure 3B) in experiment [1] of 50%. This substance also registered a migration of Plg-treated (200 nM) HUVECs in Boyden chambers: decrease by Fab of the anti-H2B mAb (20 µg/mL) against control mouse Fab (Figure 3A) in experiment [2] of 47%.
